According to article PMC7547225:

Biological target: bacterially produced mm PCDH15 EC9-MAD12 (Mus musculus)
Assay: SAXS

bacterially produced mm PCDH15 EC9-MAD12 (domain or fragment)
stoichiometry N: 2
